The text below walks through data of paper PMC10942865.

Residue numbers refer to the chain shown, from its start. In names and notes the source's numbering stands.

In this assay the target is T1, β-TrCP, endogenous, Q9Y297.
T1 chain: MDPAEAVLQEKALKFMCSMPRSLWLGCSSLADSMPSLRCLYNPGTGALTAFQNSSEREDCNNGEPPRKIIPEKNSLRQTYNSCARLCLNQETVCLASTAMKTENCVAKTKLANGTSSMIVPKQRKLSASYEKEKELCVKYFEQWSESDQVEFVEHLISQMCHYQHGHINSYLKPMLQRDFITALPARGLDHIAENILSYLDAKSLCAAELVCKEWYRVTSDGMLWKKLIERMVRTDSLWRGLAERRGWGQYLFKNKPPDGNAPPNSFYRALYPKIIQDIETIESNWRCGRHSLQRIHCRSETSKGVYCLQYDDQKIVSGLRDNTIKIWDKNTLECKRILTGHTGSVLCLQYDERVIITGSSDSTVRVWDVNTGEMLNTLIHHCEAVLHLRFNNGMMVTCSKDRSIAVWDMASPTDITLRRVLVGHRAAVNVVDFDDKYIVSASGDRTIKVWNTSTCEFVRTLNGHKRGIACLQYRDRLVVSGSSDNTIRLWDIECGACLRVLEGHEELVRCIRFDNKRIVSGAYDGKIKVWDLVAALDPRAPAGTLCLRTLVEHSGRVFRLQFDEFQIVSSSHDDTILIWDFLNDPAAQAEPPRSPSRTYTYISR
Nature of the assay: co-immunoprecipitation (IP against Flag tag, Western blot quantification). Conditions: chain shown with the change; HEK293T cells, 48 h overexpression, N = 3; parent: est. 1.0; read off a plot. (In western blotting, separated proteins are transferred to a membrane and probed.)

B1: Flag-PLK4 wt (polo-like kinase 4), full-length, O00444 K41R (protein)
chain: MATCIGEKIEDFKVGNLLGKGSFAGVYRAESIHTGLEVAIRMIDKKAMYKAGMVQRVQNEVKIHCQLKHPSILELYNYFEDSNYVYLVLEMCHNGEMNRYLKNRVKPFSENEARHFMHQIITGMLYLHSHGILHRDLTLSNLLLTRNMNIKIADFGLATQLKMPHEKHYTLCGTPNYISPEIATRSAHGLESDVWSLGCMFYTLLIGRPPFDTDTVKNTLNKVVLADYEMPSFLSIEAKDLIHQLLRRNPADRLSLSSVLDHPFMSRNSSTKSKDLGTVEDSIDSGHATISTAITASSSTSISGSLFDKRRLLIGQPLPNKMTVFPKNKSSTDFSSSGDGNSFYTQWGNQETSNSGRGRVIQDAEERPHSRYLRRAYSSDRSGTSNSQSQAKTYTMERCHSAEMLSVSKRSGGGENEERYSPTDNNANIFNFFKEKTSSSSGSFERPDNNQALSNHLCPGKTPFPFADPTPQTETVQQWFGNLQINAHLRKTTEYDSISPNRDFQGHPDLQKDTSKNAWTDTKVKKNSDASDNAHSVKQQNTMKYMTALHSKPEIIQQECVFGSDPLSEQSKTRGMEPPWGYQNRTLRSITSPLVAHRLKPIRQKTKKAVVSILDSEEVCVELVKEYASQEYVKEVLQISSDGNTITIYYPNGGRGFPLADRPPSPTDNISRYSFDNLPEKYWRKYQYASRFVQLVRSKSPKITYFTRYAKCILMENSPGADFEVWFYDGVKIHKTEDFIQVIEKTGKSYTLKSESEVNSLKEEIKMYMDHANEGHRICLALESIISEEERKTRSAPFFPIIIGRKPGSTSSPKALSPPPSVDSNYPTRERASFNRMVMHSAASPTQAPILNPSMVTNEGLGLTTTASGTDISSNSLKDCLPKSAQLLKSVFVKNVGWATQLTSGAVWVQFNDGSQLVVQAGVSSISYTSPNGQTTRYGENEKLPDYIKQKLQCLSSILLMFSNPTPNFH
In the case of B1, the ratio to parent was determined as 0.07.

B2: Flag-PLK4 wt (polo-like kinase 4), full-length, O00444 S285A; T289A (protein)
chain: B1 chain with R41K, S285A, T289A
For B2, the ratio to parent is 0.03.
